# In US20040009569A1, “Kinase crystal structures and materials and methods for kinase activation” (priority 2001, published 2004):
# Entries after “also recorded” stand apart in the source; their conditions may differ. Read-outs that look alike come from different tables or passages of the source. Square brackets hold non-standard residues; d marks the D form. Peptide text beside a SMILES is read from it. pS = N[C@@H](COP(=O)(O)O)C(=O)O
# B1: PKB HM-D (PKB hydrophobic motif peptide with aspartate at position 474) (peptide)
# peptide: GLLELDQRTHFPQFDYSASIRE
# Key:
# [1] = biological target: pΔPH-PKBβ-ΔC (human PKBβ residues 146 to 460, phosphorylated in vitro on Thr-309) (human) (UniProt P31751); experiment: cell-based or functional assay
# Sequence of pΔPH-PKBβ-ΔC (human PKBβ residues 146 to 460, phosphorylated in vitro on Thr-309) (human) (P31751 146-460, stated change not applied): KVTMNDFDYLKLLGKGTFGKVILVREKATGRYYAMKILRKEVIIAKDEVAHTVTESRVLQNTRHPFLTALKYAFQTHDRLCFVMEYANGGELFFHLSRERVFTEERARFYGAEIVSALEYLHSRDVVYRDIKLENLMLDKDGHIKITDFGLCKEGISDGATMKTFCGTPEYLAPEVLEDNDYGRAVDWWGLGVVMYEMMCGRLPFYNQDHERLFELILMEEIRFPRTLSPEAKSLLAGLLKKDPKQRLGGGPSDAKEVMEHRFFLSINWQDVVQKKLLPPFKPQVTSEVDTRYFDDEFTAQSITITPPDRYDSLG
# [2] = biological target: His tagged pΔPH-PKB-ΔC hydrophobic groove mutant V194A-V198A (human) (UniProt P31751); experiment: cell-based or functional assay
# Sequence of His tagged pΔPH-PKB-ΔC hydrophobic groove mutant V194A-V198A (human) (P31751 146-460 V194A/V198A limits assumed): as the sequence (P31751 146-460, stated change not applied) above, with V49A, V53A counted along it
# [3] = biological target: His tagged pΔPH-PKB-ΔC, wild type, transiently expressed in HEK cells (human) (UniProt P31751); experiment: cell-based or functional assay
# Sequence of His tagged pΔPH-PKB-ΔC, wild type, transiently expressed in HEK cells (human) (P31751 146-460, stated change not applied): as the sequence (P31751 146-460, stated change not applied) above
# [4] = biological target: ΔPH-PKB (human PKBβ residues 146-481) phosphorylated on Thr 309 (human) (UniProt P31751); experiment: cell-based or functional assay
# [5] = biological target: ΔPH-PKBβ-ΔC (human PKBβ residues 146 to 460, not phosphorylated on Thr-309) (human) (UniProt P31751); experiment: isothermal titration calorimetry
# Sequence of ΔPH-PKBβ-ΔC (human PKBβ residues 146 to 460, not phosphorylated on Thr-309) (human) (P31751 146-460, stated change not applied): as above
# [6] = biological target: T1, pΔPH-PKB-ΔC (PKBβ residues 146 to 460, phosphorylated in vitro on Thr-309) (Homo sapiens, UniProt P31751); experiment: Protein kinase B assay with Crosstide as substrate, peptide stimulation of pΔPH-PKB-ΔC; format: biochemical; conditions: for stimulation of pΔPH-PKB-ΔC activity (in words): PIFtide peptides at 210-250 μM, PKB HM-peptide up to 1.2 mM; for fold lower affinity than PIFtide, from estimated EC50: PKB not phosphorylated on Ser 474
# T1 construct: pΔPH-PKB-ΔC (residues 146 to 460, phosphorylated in vitro on Thr-309); 6xHis (N, cleaved yes); made in house; host or cells: Sf9 insect cells / baculovirus (pFastBacHTa)
# T1 sequence (P31751 146-460, stated change not applied): as above
# Protocol: To test the model that Ser 474 phosphorylation promotes an interaction between the hydrophobic motif and the induced hydrophobic groove of the N-terminal lobe, thereby causing an allosteric activation of the kinase, the ability of peptides modelled on the hydrophobic motif of PKB to activate the enzyme via an intermolecular association with the N-terminal lobe was assessed.
# (§1) PKB was assayed essentially as described by Andjelkovic et al. (1999) with 30 μM Crosstide (GRPRTSSAEG) as substrate except the protein kinase A inhibitor peptide was not added to the reactions. For peptide stimulation experiments the various peptides were dissolved in water and added to the kinase assay mix prior to adding the PKB protein. Peptides were synthesized by Franz Fischer at the FMI or purchased from Neosystem, Strasburg, France.
# (§2) All experiments were performed in either duplicate or triplicate.
# [7] = biological target: T2, ΔPH-PKB phosphorylated on both Thr 309 and Ser 474 (Homo sapiens, UniProt P31751); experiment: Protein kinase B assay with Crosstide, peptide stimulation of doubly phosphorylated ΔPH-PKB; format: biochemical
# T2 construct: Purification of ΔPH-PKBβ-ΔC (Residues 146-460) and ΔPH-PKBβ (Residues 146-481); 6xHis (N, cleaved yes); made in house; host or cells: Sf9 insect cells / baculovirus (pFastBacHTa)
# T2 sequence (P31751 146-481, stated change not applied): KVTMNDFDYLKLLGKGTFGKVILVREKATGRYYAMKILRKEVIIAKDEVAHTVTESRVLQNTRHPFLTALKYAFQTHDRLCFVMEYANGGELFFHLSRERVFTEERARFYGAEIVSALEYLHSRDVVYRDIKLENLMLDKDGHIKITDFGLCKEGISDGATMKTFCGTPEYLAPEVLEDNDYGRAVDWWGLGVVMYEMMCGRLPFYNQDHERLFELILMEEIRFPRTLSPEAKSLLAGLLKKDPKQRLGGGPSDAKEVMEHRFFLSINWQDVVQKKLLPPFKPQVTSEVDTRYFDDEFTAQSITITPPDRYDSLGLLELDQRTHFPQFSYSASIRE
# Protocol: as §1, §2
# [8] = biological target: T3, His tagged pΔPH-PKB-ΔC wild type (Homo sapiens, UniProt P31751); experiment: PIFtide responsiveness of His tagged wild type pΔPH-PKB-ΔC expressed in HEK cells; format: biochemical; conditions: incomplete Thr 309 phosphorylation
# T3 construct: pΔPH-PKB-ΔC (residues 146 to 460, phosphorylated in vitro on Thr-309); made in house; host or cells: HEK cells (transient expression), purified on Ni-NTA agarose
# T3 sequence (P31751 146-460, stated change not applied): as the sequence (P31751 146-460, stated change not applied) above
# Protocol: To test the notion that a hydrophobic groove is induced in PKB to engage the hydrophobic motif, and activate the kinase, a series of His tagged pΔPH-PKB-ΔC hydrophobic groove mutants were prepared and their responsiveness to PIFtide assessed. PKB mutants were transiently expressed in HEK cells, phosphorylated in vitro with PDK1, and purified using Ni-NTA agarose. […] Wild type PKB prepared using this procedure was stimulated ˜5-fold by 130 μM PIFtide (FIG. 6B).
# as §1
# pΔPH-PKB-ΔC = biological target: T4, pΔPH-PKB-ΔC (Homo sapiens, UniProt P31751); experiment: Isothermal titration calorimetry, peptide binding to pΔPH-PKB-ΔC
# T4 construct: pΔPH-PKB-ΔC (residues 146 to 460, phosphorylated in vitro on Thr-309); 6xHis (N, cleaved yes); made in house; host or cells: Sf9 insect cells / baculovirus (pFastBacHTa)
# T4 sequence (P31751 146-460, stated change not applied): as above
# Protocol: (C) Isothermal titration calorimetry measurements of the binding of PIFtide to pΔPH-PKB-ΔC (left) and ΔPH-PKB-ΔC (right). Upper panel, raw data of the titration of PIFtide into pΔPH-PKB-ΔC. Lower panel, integrated heats of injections, corrected for the heat of dilution, with the solid line corresponding to the best fit of the data using the MicroCal software.
# Using isothermal titration calorimetry, the affinity between PIFtide and both pΔPH-PKB-ΔC and ΔPH-PKB-ΔC was determined (FIG. 5C). […] The observed large decrease in entropy is […] typical of protein-peptide interactions, for example SH2-domain-phosphotyrosine peptide complexes (Ladbury et al., 1996), and is consistent with an ordering of both the protein, presumably the αB- and αC-helices of the N-lobe, and peptide on complex formation.
# [9] = biological target: pΔPH-PKBβ-ΔC (human PKBβ residues 146 to 460, phosphorylated in vitro on Thr-309) (human) (UniProt P31751); experiment: cell-based or functional assay; remark: listed apart in the source
# [10] = assuming activation at saturating peptide similar to that induced by PIFtide, read-out: EC50 estimated from FIG. 5A
molecule,measurement,setting,value
"PKB HM-P (peptide modelled on the phosphorylated hydrophobic motif of PKBβ, residues 460-481)",estimated EC50 of activation of kinase activity,[1],2300 µM
same,"fold lower affinity than PIFtide, from the estimated EC50 of activation",[1],1000 fold
same,stimulation of PKB kinase activity towards Crosstide,[1],4 fold
PIFtide (synthetic peptide encompassing the PRK2 hydrophobic motif),PIFtide activation relative to wild type (% of wild type),[2],25
same,stimulation of PKB kinase activity by 130 µM PIFtide,[3],5 fold
same,EC50 of activation of kinase activity,[1],3 µM
same,activation of PKB kinase activity,[1],15 fold
same,peptide concentration giving maximum and saturable activation,[1],20 µM
same,specific activity of pΔPH-PKB-ΔC maximally activated by PIFtide,[1],350 nmol/min/mg
same,activation of PKB kinase activity,[4],5 fold
same,TΔS,[5],-9.2 kcal/mol
same,ΔH,[5],-16 kcal/mol
GLLELDQRTHFPQFSYSASIRE [PKB HM-S],stimulation of pΔPH-PKB-ΔC activity (in words),[6]; Crosstide substrate,did not stimulate
"MFRDFDYIADW [PIFtide1, 11-residue peptide encompassing the six-residue hydrophobic motif of PIFtide]",stimulation of pΔPH-PKB-ΔC activity (in words),[6]; Crosstide substrate,essentially recapitulates the activation
"CC[C@H](C)[C@H](NC(=O)[C@H](CO)NC(=O)[C@H](C)NC(=O)[C@H](CO)NC(=O)[C@H](Cc1ccc(O)cc1)NC(=O)[C@H](COP(=O)(O)O)NC(=O)[C@H](Cc1ccccc1)NC(=O)[C@H](CCC(N)=O)NC(=O)[C@@H]1CCCN1C(=O)[C@H](Cc1ccccc1)NC(=O)[C@H](Cc1c[nH]cn1)NC(=O)[C@@H](NC(=O)[C@H](CCCNC(=N)N)NC(=O)[C@H](CCC(N)=O)NC(=O)[C@H](CC(=O)O)NC(=O)[C@H](CC(C)C)NC(=O)[C@H](CCC(=O)O)NC(=O)[C@H](CC(C)C)NC(=O)[C@H](CC(C)C)NC(=O)CN)[C@@H](C)O)C(=O)N[C@@H](CCCNC(=N)N)C(=O)N[C@@H](CCC(=O)O)C(=O)O [HM-P, GLLELDQRTHFPQFpSYSASIRB] (H-GLLELDQRTHFPQF[pS]YSASIRE-OH; N-terminus and C-terminus assumed)","fold lower affinity than PIFtide, from estimated EC50",[6],~1000 fold
same,EC50,[6]; [10],2300 µM
same,activation of ΔPH-PKB phosphorylated on both Thr 309 and Ser 474 (in words),[7],did not further activate
same,activation of wild type PKB by PKB HM-peptide (in words),[8],did not elicit measurable activation
CC[C@H](C)[C@H](NC(=O)[C@H](Cc1ccc(O)cc1)NC(=O)[C@H](C)NC(=O)[C@H](Cc1ccccc1)NC(=O)[C@H](CC(=O)O)NC(=O)[C@H](CCCNC(=N)N)NC(=O)[C@H](Cc1ccccc1)NC(=O)[C@H](CCSC)NC(=O)[C@H](CCC(=O)O)NC(=O)[C@H](CCC(N)=O)NC(=O)[C@H](CCC(=O)O)NC(=O)[C@H](CCC(=O)O)NC(=O)[C@H](CCC(=O)O)NC(=O)[C@H](CO)NC(=O)[C@H](CC(C)C)NC(=O)[C@@H](NC(=O)[C@H](CCCNC(=N)N)NC(=O)[C@@H]1CCCN1C(=O)[C@H](CCC(=O)O)NC(=O)[C@@H](N)CCCNC(=N)N)[C@@H](C)CC)C(=O)N[C@@H](C)C(=O)N[C@@H](CC(=O)O)C(=O)N[C@@H](Cc1c[nH]c2ccccc12)C(=O)O [PIFtide(D->A)] (H-REPRILSEEEQEMFRDFAYIADW-OH; N-terminus and C-terminus assumed),"fold lower affinity than PIFtide, from EC50",[6],10 fold
same,EC50,"[6]; Crosstide substrate, value of PIFtide(D->A) called estimated, read-out: EC50 for activation of pΔPH-PKB-ΔC",30 µM
same,maximal activation of pΔPH-PKB-ΔC compared with wild type PIFtide (in words),[6]; saturating / high concentrations of the mutant peptide,identical to that of the wild type peptide; also recorded: could activate PKB maximally
same,"fold lower affinity relative to PIFtide, ITC",pΔPH-PKB-ΔC,approximately 25 fold
CC[C@H](C)[C@H](NC(=O)[C@H](CO)NC(=O)[C@H](C)NC(=O)[C@H](CO)NC(=O)[C@H](Cc1ccc(O)cc1)NC(=O)[C@H](CC(=O)O)NC(=O)[C@H](Cc1ccccc1)NC(=O)[C@H](CCC(N)=O)NC(=O)[C@@H]1CCCN1C(=O)[C@H](Cc1ccccc1)NC(=O)[C@H](Cc1c[nH]cn1)NC(=O)[C@@H](NC(=O)[C@H](CCCNC(=N)N)NC(=O)[C@H](CCC(N)=O)NC(=O)[C@H](CC(=O)O)NC(=O)[C@H](CC(C)C)NC(=O)[C@H](CCC(=O)O)NC(=O)[C@H](CC(C)C)NC(=O)[C@H](CC(C)C)NC(=O)CN)[C@@H](C)O)C(=O)N[C@@H](CCCNC(=N)N)C(=O)N[C@@H](CCC(=O)O)C(=O)O [PKB HM-D] (H-GLLELDQRTHFPQFDYSASIRE-OH; N-terminus and C-terminus assumed),"fold lower affinity than PIFtide, from estimated EC50",[6],~1000 fold
same,EC50,[6]; [10],3600 µM
B1,estimated EC50 of activation of kinase activity,[9],3600 µM
same,"fold lower affinity than PIFtide, from the estimated EC50 of activation",[9],1000 fold
same,stimulation of PKB kinase activity towards Crosstide,[9],3 fold
